Test results taken from paper PMC8467012.

B1: BCD090-P1 (VHH)
VHH: EVQLVQSGGGLVQPGGSLRLSCAASGRTSSKYAMGWFRQAPGKGTEFVATISWSDGSTYYADSVEGRFTISRDNAKNTVYLQMNSLKPEDTAVYYCAAAVDVLAGTFEYEYDYWGQGTLVTVSS
B2: BCD090-M2 (VHH)
VHH: QVQLVQSGGGLVQAGGSLRLSCAFSGRTFSMYTMGWFRQAPGKEREFVAANRGRGLSPDIADSVNGRFTISRDNAKNTLYLQMDSLKPEDTAVYYCAADLQYGSSWPQRSSAEYDYWGQGTTVTVSS

Molecular target: ErbB3 receptor on cancer cells (human (endogenous in MCF-7, SK-BR-3, BT-474, Hep G2)) (UniProt P21860)
Sequence (P21860 20-1342): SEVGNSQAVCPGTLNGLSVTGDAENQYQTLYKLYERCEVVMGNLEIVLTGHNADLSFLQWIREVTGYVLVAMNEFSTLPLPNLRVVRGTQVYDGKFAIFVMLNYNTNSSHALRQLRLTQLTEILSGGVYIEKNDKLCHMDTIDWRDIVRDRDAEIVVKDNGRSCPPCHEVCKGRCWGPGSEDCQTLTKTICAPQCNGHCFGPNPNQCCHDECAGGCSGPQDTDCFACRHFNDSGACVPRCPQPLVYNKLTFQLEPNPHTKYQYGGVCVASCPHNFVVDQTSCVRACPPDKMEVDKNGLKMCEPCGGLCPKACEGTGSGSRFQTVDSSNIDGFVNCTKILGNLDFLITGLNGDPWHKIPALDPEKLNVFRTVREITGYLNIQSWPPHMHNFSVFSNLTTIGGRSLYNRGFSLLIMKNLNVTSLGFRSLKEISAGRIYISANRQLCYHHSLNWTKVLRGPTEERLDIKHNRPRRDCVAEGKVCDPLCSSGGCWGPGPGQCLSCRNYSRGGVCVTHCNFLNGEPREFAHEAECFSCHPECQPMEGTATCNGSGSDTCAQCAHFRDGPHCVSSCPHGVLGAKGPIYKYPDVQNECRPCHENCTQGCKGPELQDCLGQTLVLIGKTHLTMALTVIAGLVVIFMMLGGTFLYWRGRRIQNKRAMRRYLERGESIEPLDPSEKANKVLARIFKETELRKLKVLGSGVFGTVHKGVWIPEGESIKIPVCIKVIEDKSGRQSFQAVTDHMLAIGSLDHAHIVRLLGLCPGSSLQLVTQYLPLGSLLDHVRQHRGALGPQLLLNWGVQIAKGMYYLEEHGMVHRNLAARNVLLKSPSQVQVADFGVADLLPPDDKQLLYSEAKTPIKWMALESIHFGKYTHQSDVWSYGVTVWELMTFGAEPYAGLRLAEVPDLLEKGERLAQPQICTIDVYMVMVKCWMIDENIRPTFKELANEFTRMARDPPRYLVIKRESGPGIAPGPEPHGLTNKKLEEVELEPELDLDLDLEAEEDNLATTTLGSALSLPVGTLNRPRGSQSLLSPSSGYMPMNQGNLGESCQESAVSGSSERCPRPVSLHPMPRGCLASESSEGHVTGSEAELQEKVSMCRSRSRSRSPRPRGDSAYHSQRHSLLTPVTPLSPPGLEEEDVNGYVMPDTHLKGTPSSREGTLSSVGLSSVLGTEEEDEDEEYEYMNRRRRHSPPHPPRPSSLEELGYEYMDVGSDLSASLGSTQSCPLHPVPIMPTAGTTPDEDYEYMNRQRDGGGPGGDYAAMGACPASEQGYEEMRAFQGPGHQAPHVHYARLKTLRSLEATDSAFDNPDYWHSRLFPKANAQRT

Binder	EC50 of inhibition of heregulin-driven proliferation of MCF-7 cells (MTS, 5 days, 50 ng/mL heregulin-1β)	EC50 of inhibition of proliferation of SK-BR-3 cells (MTS, 5 days, 50 ng/mL heregulin-1β)	EC50 of inhibition of heregulin-driven proliferation of MCF-7 cells (MTS, 5 days, 50 ng/mL heregulin-1β); blocks heregulin binding to ErbB3	EC50 of inhibition of proliferation of SK-BR-3 cells (MTS, 5 days, 50 ng/mL heregulin-1β); blocks heregulin binding to ErbB3
B1	0.1 µg/mL	15 µg/mL	–	–
B2	–	–	25 µg/mL	3 µg/mL
